According to paper PMC7515630 (2020):

Biological target: GST-LOV2GIVe (L) (Avena sativa | , UniProt O49003)

B1: His-Gαi3 (rat) (natural protein)
chain: MGCTLSAEDKAAVERSKMIDRNLREDGEKAAKEVKLLLLGAGESGKSTIVKQMKIIHEDGYSEDECKQYKVVVYSNTIQSIIAIIRAMGRLKIDFGEAARADDARQLFVLAGSAEEGVMTSELAGVIKRLWRDGGVQACFSRSREYQLNDSASYYLNDLDRISQTNYIPTQQDVLRTRVKTTGIVETHFTFKELYFKMFDVGGQRSERKKWIHCFEGVTAIIFCVALSDYDLVLAEDEEMNRMHESMKLFDSICNNKWFTDTSIILFLNKKDLFEEKIKRSPLTICYPEYTGSNTYEEAAAYIQCQFEDLNRRKDTKEVYTHFTCATDTKNVQFVFDAVTDVIIKNNLKECGLY
Kd: 270 nM
